From article PMC2805098 (Biochemistry, 2009)
Positions count from the first letter of the chain named. Like-named read-outs stand apart in the source and are kept apart here.

B1: Phe223Leu (protein, UniProt P0AEZ1 1-296, looked up, variant F223L)
5,10-methylenetetrahydrofolate …: MSFFHASQRDALNQSLAEVQGQINVSFEFFPPRTSEMEQTLWNSIDRLSSLKPKFVSVTYGANSGERDRTHSIIKGIKDRTGLEAAPHLTCIDATPDELRTIARDYWNNGIRHIVALRGDLPPGSGKPEMYASDLVTLLKEVADFDISVAAYPEVHPEAKSAQADLLNLKRKVDAGANRAITQFFFDVESYLRFRDRCVSAGIDVEIIPGILPVSNFKQAKKLADMTNVRIPAWMAQMFDGLDDDAETRKLVGANIAMDMVKILSREGVKDFHFYTLNRAEMSYAICHTLGVRPGL
B2: Wild-type: wild-type histidine-tagged E. coli methylenetetrahydrofolate reductase (protein, UniProt P0AEZ1 1-296, looked up)
5,10-methylenetetrahydrofolate …: B1 5,10-methylenetetrahydrofolate … with L223F
modifications: histidine tag
B3: Phe223Ala: Phe223Ala mutant of histidine-tagged E. coli methylenetetrahydrofolate reductase (protein, UniProt P0AEZ1 1-296, looked up, variant F223A)
5,10-methylenetetrahydrofolate …: B1 5,10-methylenetetrahydrofolate … with L223A
modifications: histidine tag

Assays:
[1] = Midpoint potential determination, xanthine/xanthine oxidase reducing system; format: physicochemical, Escherichia coli; details: two-electron, pH 7.2, 25 °C, reference dye phenosafranine
[2] = pH 7.2, 25 °C; cited from earlier work

| Molecule | Midpoint Potential [1] | Midpoint Potential [2] |
| --- | --- | --- |
| B1 | −240 ± 3 mV | – |
| B2 | – | −237 ± 4 mV |
| B3 | −236 ± 3 mV | – |
